Biological target: T1, PD-1 (UniProt Q15116 25-288, limits assumed)
T1 construct: whole, on cells; also called Jurkat/PD-1细胞表面的PD-1; Jurkat/PD1
Assay: Jurkat/PD-1 + CHO/PD-L1 NFAT-luciferase reporter blockade assay (binding inferred)

T1 sequence (Q15116 25-288 limits assumed): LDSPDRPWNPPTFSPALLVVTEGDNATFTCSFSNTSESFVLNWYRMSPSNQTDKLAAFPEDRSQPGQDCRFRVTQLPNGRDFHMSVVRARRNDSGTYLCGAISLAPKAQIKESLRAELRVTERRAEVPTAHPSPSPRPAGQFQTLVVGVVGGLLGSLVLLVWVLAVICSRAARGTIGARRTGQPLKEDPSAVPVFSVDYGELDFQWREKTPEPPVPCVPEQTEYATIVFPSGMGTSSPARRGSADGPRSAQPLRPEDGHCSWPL

binding result: binds
B1: G-Ab1 (antibody, human IgG4 S228P, kappa, V domains shown)
VH: QIQLVQSGSELKKPGASVKVSCKASGYTFTNFGMNWVRQAPGQGLKWMGWISGYTREPTYAADFKGRFVISLDTSVSTAYLQISSLKAEDTAVYYCARDVFDYWGQGTLVTVSS
VL: DIVLTQSPASLAVSPGQRATITCRASESVDNYGYSFMNWFQQKPGQPPKLLIYRASNLESGVPARFSGSGSRTDFTLTINPVEADDTANYYCQQSNADPTFGQGTKLEIKR
notes: The control used was an IgG4 isotype control; also called 抗PD-1抗体; G-Ab1抗体

Reference: patent publication CN115611981A (GENOR BIOPHARMA CO LTD, dated 2023)
